By EC50 is commonly meant the concentration at which the effect is half-maximal. For orientation: Kd means the equilibrium constant for the complex coming apart. As a reminder, the koff is the rate constant with which the complex falls apart. In general, kon refers to a measure of how fast the partners come together. In general, EC50 (read off the curve) refers to the concentration that produces a half-maximal response. A lower EC50 (read off the curve) goes with an effect from little substance. As usually defined, the IC50 is the concentration that inhibits the measured activity by half.

Where a chain is given by its changes, count along the chain named. In names and notes the source's numbering stands. Read-outs that look alike come from different tables or passages of the source.

This is an account of results in US20160251440A1 (Ablynx, published 2016).

Assay [1] addresses T1, recombinant human CEACAM5 (human, UniProt P06731 35-685).
T1 construct: also called hCEACAM-5; R&D Systems 4128-CM
T1 sequence (looked up): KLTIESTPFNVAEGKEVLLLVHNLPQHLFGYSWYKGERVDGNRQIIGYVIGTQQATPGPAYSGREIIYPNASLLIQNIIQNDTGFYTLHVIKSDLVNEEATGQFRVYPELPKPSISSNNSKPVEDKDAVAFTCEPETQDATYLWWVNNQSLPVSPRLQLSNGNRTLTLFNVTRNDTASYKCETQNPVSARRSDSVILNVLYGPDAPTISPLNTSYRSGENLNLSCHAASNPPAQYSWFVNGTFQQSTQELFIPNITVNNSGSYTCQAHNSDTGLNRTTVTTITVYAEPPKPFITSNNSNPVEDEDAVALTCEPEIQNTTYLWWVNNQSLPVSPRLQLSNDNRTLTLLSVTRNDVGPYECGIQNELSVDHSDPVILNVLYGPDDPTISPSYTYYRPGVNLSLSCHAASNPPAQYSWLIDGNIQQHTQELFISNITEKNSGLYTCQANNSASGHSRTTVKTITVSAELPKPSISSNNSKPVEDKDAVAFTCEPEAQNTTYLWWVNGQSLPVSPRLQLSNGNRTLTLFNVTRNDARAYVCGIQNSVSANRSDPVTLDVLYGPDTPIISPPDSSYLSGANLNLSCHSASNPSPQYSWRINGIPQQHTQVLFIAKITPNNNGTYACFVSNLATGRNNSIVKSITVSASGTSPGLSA
Briefly: ELISA, coated CEACAM5. Background: An ELISA detects its analyte on a solid surface through an enzyme-linked reagent.

Assay [2] deals with T2, human CEACAM5, cell-expressed (human, UniProt P06731 35-685).
T2 construct: whole, on cells
T2 sequence (looked up): T1 sequence (looked up)
Briefly: FACS, LoVo cells.

Assay [3] addresses T1, recombinant human CEACAM5. The assay can be described thus: SPR Biacore T100, immobilised hCEACAM-5. Background: In SPR one partner is held on a chip, and binding of the other changes the refractive index at the surface.
Assay [4] concerns the target T1, recombinant human CEACAM5. Briefly: ELISA, coated CEACAM5. This is another data set of the same source.
For assay [5], the target named is T3, human EGFR, cell-expressed (human, UniProt P00533 25-1210).
T3 construct: whole, on cells; also called ErbB-1
The assay can be described thus: flow cytometry on HER14 cells (EGFR only), anti-Flag detection. For orientation: Flow cytometry measures light scatter and fluorescence of single cells or particles in a stream.

Assay [6] deals with T2, human CEACAM5, cell-expressed. Briefly: FACS, LoVo cells. The source holds these as a separate data set.
For assay [7], the target named is CXCR4 and CD4 co-expressed on cells (MOLM-13, THP-1, MT-4, PBMC; Jurkat CD4 low) (human, UniProt P61073 1-352; P01730 26-458). Briefly: cell-based or functional assay.
Assay [8] has as its target T4, human CXCR4 (on cells, viral lipoparticles or membrane extracts) (human, UniProt P61073 1-352).
T4 construct: whole, on cells; also called hCXCR4 VLPs; CXCR4-lip
The assay can be described thus: ELISA on coated hCXCR4 lipoparticles against null lipoparticles at 100, 10, 1 and 0 nM, anti-c-myc detection.

Assay [9] has as its target T5, human CD4, cell-expressed (human, UniProt P01730 26-458).
T5 construct: whole, on cells
Briefly: flow cytometry on MOLM-13 cells (CD4, no IL12R or IL23R), lower left panel.

Assay [10] addresses T6, human IL12Rβ1 extracellular domain Fc-fusion (human, UniProt P42701 24-545).
T6 construct: extracellular domain; bought; also called IL12Rβ1-Fc; hIL-12Rβ1-Fc; not shown: Fc part, captured by anti-hIgG
The assay can be described thus: competition ELISA, coated IL-23 + IL12Rβ1-Fc.

The target of assay [11] is T6, human IL12Rβ1 extracellular domain …. Briefly: competition ELISA, ratio to monovalent IL12Rb1#30.
The target in assay [12] is T5, human CD4, cell-expressed. The assay can be described thus: flow cytometry on activated T cells of donor D838 (very high CD4, moderate IL12R), upper right panel.
Assay [13] has as its target T7, human IL12Rβ1, cell-expressed (human, UniProt P42701 24-662). Briefly: cell-based or functional assay.
The target of assay [14] is T6, human IL12Rβ1 extracellular domain …. Briefly: competition ELISA, coated IL-12 + IL12Rβ1-Fc.
The target is the same in assay [15]. Briefly: competition ELISA, ratio to monovalent IL12Rb1#30. This is another data set of the same source.
The target of assay [16] is T7, human IL12Rβ1, cell-expressed. The assay can be described thus: cell-based or functional assay. The source holds these as a separate data set.
In assay [17] the target is T6, human IL12Rβ1 extracellular domain …. The assay can be described thus: competition ELISA, ratio to monovalent IL12Rb1#31.
For assay [18] the target is unchanged. The assay can be described thus: competition ELISA, ratio to monovalent IL12Rb1#31. This is another data set of the same source.

Sequence of CXCR4 and CD4 co-expressed on cells (MOLM-13, THP-1, MT-4, PBMC; Jurkat CD4 low) (P61073 whole entry, chain 1 of 2, other chains not shown): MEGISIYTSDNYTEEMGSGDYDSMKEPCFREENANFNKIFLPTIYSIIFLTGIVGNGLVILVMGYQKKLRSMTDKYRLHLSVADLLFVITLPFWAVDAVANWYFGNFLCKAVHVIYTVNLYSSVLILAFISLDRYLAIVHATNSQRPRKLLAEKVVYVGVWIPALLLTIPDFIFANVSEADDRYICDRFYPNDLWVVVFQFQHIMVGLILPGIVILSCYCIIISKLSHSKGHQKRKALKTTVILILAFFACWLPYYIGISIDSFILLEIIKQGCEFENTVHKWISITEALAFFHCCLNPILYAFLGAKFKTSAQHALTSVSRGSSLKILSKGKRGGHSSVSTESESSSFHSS
T4 sequence (P61073 whole entry): as the sequence (P61073 whole entry, chain 1 of 2, other chains not shown) above

B1: CEA#1-35GS-ctrl (bispecific antibody)
chain: EVQLVESGGGSVQAGGSLRLSCAASGDTYGSYWMGWFRQAPGKEREGVAAINRGGGYTVYADSVKGRFTISRDTAKNTVYLQMNSLRPDDTADYYCAASGVLGGLHEDWFNYWGQGTLVTVSSGGGGSGGGGSGGGGSGGGGSGGGGSGGGGSGGGGSDVQLQASGGGSVQAGGSLRLSCAASGYTIGPYCMGWFRQAPGKEREGVAAINMGGGITYYADSVKGRFTISQDNAKNTVYLLMNSLEPEDTAIYYCAADSTIYASYYECGHGLSTGGYGYDSWGQGTQVTVSS
notes: also called BI#48; T023200048
In the case of B1, the EC50 in [1] was determined as 0.026 nM; in assay [2] it was 0.92 nM.

B2: CEA#5-35GS-ctrl (bispecific antibody)
chain: B1 chain with K43Q, G47A, T74N, V79L
notes: also called BI#51; T023200051
In the case of B2, the EC50 in [1] stood at 0.11 nM; in [2], 2.6 nM.

B3: CEA#5 (VHH)
VHH: EVQLVESGGGSVQAGGSLRLSCAASGDTYGSYWMGWFRQAPGQEREAVAAINRGGGYTVYADSVKGRFTISRDNAKNTLYLQMNSLRPDDTADYYCAASGVLGGLHEDWFNYWGQGTLVTVSS
notes: also called T023200005; NbCEA5(K43Q, G47A, T73N, V78L)
On to B3, for which, in [3], the Kd was determined as 3.1 nM, the koff worked out at 0.0033 s⁻¹ and the kon is 1.1e+06 M⁻¹ s⁻¹. Further, the EC50 in assay [4] is 0.11 nM. In [5], the binding result is reported as “no binding (tested: about 1E-7 M)”. In assay [6], this molecule had an EC50 of 2.4 nM.

B4: CEA#1 (VHH)
VHH: B3 VHH with Q43K, A47G, N74T, L79V
notes: also called NbCEA5
B4: in [3], the Kd stood at 0.51 nM, the koff was 0.00051 s⁻¹ and the kon was 990000 M⁻¹ s⁻¹. Also, the EC50 in assay [4] was found to be 0.026 nM. For the same molecule, the binding result in [5] is given as “no binding (tested: about 1E-7 M)”. The EC50 in [6] was found to be 1 nM.

B5: 281F12-9GS-03F11 (bispecific antibody)
chain: EVQLVESGGGLVQAGDSLRLSCAASGRAFSRYAMGWFRQAPGKEREFVAAIGWGPSKTNYADSVKGRFTISRDNAKNTVYLQMNTLKPEDTAVYSCAAKFVNTDSTWSRSEMYTYWGQGTQVTVSSGGGSGGGGSEVQLVESGGGSVQPGGSLTLSCGTSGRTFNVMGWFRQAPGKEREFVAAVRWSSTGIYYTQYADSVKSRFTISRDNAKNTVYLEMNSLKPEDTAVYYCAADTYNSNPARWDGYDFRGQGTQVTVSS
notes: also called CXCR4#2-9GS-CD4#8
For the molecule B5, in assay [7], the “IC50, HIV-1 NL4.3 (X4), MT-4” value amounted to 0.2 nM; the “IC50, HIV-1 NL4.3 (X4), PBMC” value is 0.03 nM; the “IC50, HIV-1 NL4.3 (X4), U87” value turned out to be 0.53 nM. Besides, in assay [8], the binding result is “binds”.

B6: IL12Rb1#30-35GS-CD4#8 (bispecific antibody)
chain: EVQLVESGGGLVQTGGSLRLSCAASGRTPRLVAMGWFRQTPGKEREFVGEIILSKGFTYYADSVKGRFTISRVNAKNTITMYLQMNSLKSEDTAVYYCAGRQNWSGSPARTNEYEYWGQGTLVTVSSGGGGSGGGGSGGGGSGGGGSGGGGSGGGGSGGGGSEVQLVESGGGSVQPGGSLTLSCGTSGRTFNVMGWFRQAPGKEREFVAAVRWSSTGIYYTQYADSVKSRFTISRDNAKNTVYLEMNSLKPEDTAVYYCAADTYNSNPARWDGYDFRGQGTLVTVSS
notes: also called BI#46; T023200046
In the case of B6, the “EC50 (read off the curve)” value in [9] was roughly 1 nM. The IC50 in assay [10] is 3 nM. In addition, the fold ctrl in assay [11] stood at 0.5 fold. In addition, the “EC50 (read off the curve)” value in assay [12] was roughly 1 nM. Moreover, in assay [13], the “IC50, IFNγ release, PBMC D840” value came to 0.45 nM; the “IC50, IFNγ release, T cells D839” value turned out to be 0.29 nM; the “fold ctrl, IFNγ release, PBMC D840” value worked out at 38 fold; the “fold ctrl, IFNγ release, T cells D839” value was 552 fold. The IC50 in [14] came to 6.2 nM. Besides, the fold ctrl in [15] was found to be 0.6 fold. Also, in [16], the “IC50, IL-17 release, PBMC D840” value was found to be 0.016 nM and the “fold ctrl, IL-17 release” value was found to be 875 fold.

B7: IL12Rb1#31-35GS-CD4#8 (bispecific antibody)
chain: B6 chain with R30S, L31I, V32I, V73A, G100A, S107N, A109T
notes: also called BI#47; T023200047
B7: the “EC50 (read off the curve)” value in assay [9] is roughly 1 nM. Further, the IC50 in [10] is 13 nM. The fold ctrl in [17] was determined as 0.9 fold. Moreover, in [12], the “EC50 (read off the curve)” value was roughly 1 nM. In assay [13], the “IC50, IFNγ release, PBMC D840” value is 1.9 nM; the “IC50, IFNγ release, T cells D839” value was determined as 4.1 nM; the “fold ctrl, IFNγ release, PBMC D840” value is 41 fold. Further, in assay [18], the fold ctrl is 0.8 fold. In addition, the IC50 in [14] amounted to 24 nM. In assay [16], the “IC50, IL-17 release, PBMC D840” value worked out at 0.23 nM and the “fold ctrl, IL-17 release” value was found to be 565 fold.

B8: CD4#8-35GS-IL12Rb1#30 (bispecific antibody)
chain: EVQLVESGGGSVQPGGSLTLSCGTSGRTFNVMGWFRQAPGKEREFVAAVRWSSTGIYYTQYADSVKSRFTISRDNAKNTVYLEMNSLKPEDTAVYYCAADTYNSNPARWDGYDFRGQGTLVTVSSGGGGSGGGGSGGGGSGGGGSGGGGSGGGGSGGGGSEVQLVESGGGLVQTGGSLRLSCAASGRTPRLVAMGWFRQTPGKEREFVGEIILSKGFTYYADSVKGRFTISRVNAKNTITMYLQMNSLKSEDTAVYYCAGRQNWSGSPARTNEYEYWGQGTLVTVSS
notes: also called BI#40; T023200040
Consider B8, for which the “EC50 (read off the curve)” value in assay [9] is roughly 1 nM. For the same molecule, the IC50 in assay [10] amounted to 3.6 nM. Moreover, the fold ctrl in assay [11] amounted to 0.4 fold. Further, in assay [12], the “EC50 (read off the curve)” value is roughly 1 nM. For the same molecule, in assay [13], the “IC50, IFNγ release, PBMC D840” value came to 0.36 nM; the “IC50, IFNγ release, T cells D839” value came to 0.28 nM; the “fold ctrl, IFNγ release, PBMC D840” value came out at 47 fold; the “fold ctrl, IFNγ release, T cells D839” value is 429 fold. For the same molecule, in [14], the IC50 is 7.3 nM. Also, in assay [15], the fold ctrl amounted to 0.5 fold. Besides, in assay [16], the “IC50, IL-17 release, PBMC D840” value was 0.035 nM and the “fold ctrl, IL-17 release” value stood at 1630 fold.

B9: CD4#8-35GS-IL12Rb1#31 (bispecific antibody)
chain: B8 chain with R190S, L191I, V192I, V233A, G260A, S267N, A269T
notes: also called BI#41; T023200041
For the molecule B9, the “EC50 (read off the curve)” value in [9] and in assay [12] was roughly 1 nM throughout. Moreover, the IC50 in assay [10] stood at 15 nM; in assay [14], 28 nM. The values for the fold ctrl in assay [17] and in [18] were 0.8 fold and 0.7 fold, respectively. Also, the “IC50, IFNγ release, PBMC D840” value in [13] amounted to 2.2 nM. The “IC50, IFNγ release, T cells D839” value in [13] worked out at 1.7 nM. Moreover, in assay [13], the “fold ctrl, IFNγ release, PBMC D840” value amounted to 50 fold. Further, in assay [16], the “IC50, IL-17 release, PBMC D840” value came out at 0.17 nM. Besides, in [16], the “fold ctrl, IL-17 release” value came to 1710 fold.
